Data published in IntAct's records for PubMed 31142615.

B1: E3 ubiquitin-protein ligase MARCHF2 (Homo sapiens), Q9P0N8 (parent)
chain: MTTGDCCHLPGSLCDCSGSPAFSKVVEATGLGPPQYVAQVTSRDGRLLSTVIRALDTPSDGPFCRICHEGANGECLLSPCGCTGTLGAVHKSCLEKWLSSSNTSYCELCHTEFAVEKRPRPLTEWLKDPGPRTEKRTLCCDMVCFLFITPLAAISGWLCLRGAQDHLRLHSQLEAVGLIALTIALFTIYVLWTLVSFRYHCQLYSEWRKTNQKVRLKIREADSPEGPQHSPLAAGLLKKVAEETPV

Variants of: B1
Conditions: with ergi3_human ERGIC3, Q9Y282
Sequence of ergi3_human ERGIC3, Q9Y282 (Q9Y282 whole entry): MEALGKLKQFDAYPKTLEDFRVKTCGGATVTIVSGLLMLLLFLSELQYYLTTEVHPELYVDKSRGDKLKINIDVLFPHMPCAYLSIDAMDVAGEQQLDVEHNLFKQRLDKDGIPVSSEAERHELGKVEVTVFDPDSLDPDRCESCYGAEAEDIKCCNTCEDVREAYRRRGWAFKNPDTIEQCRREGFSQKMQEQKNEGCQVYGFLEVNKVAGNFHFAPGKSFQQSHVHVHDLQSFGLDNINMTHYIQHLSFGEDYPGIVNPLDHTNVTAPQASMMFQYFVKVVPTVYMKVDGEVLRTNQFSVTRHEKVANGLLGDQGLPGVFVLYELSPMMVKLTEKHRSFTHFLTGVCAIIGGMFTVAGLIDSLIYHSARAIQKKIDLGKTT

Variant	effect of a mutation on the interaction
C64S;C67S	decreasing interaction strength

Variants of: B1
Conditions: with ergi3_human ERGIC3, Q9Y282
Remark: another data set of the same source

Variant	effect of a mutation on the interaction
C64S;C67S	with no effect

Variants of: B1
Conditions: with ergi3_human ERGIC3, Q9Y282
Remark: another data set of the same source

Variant	effect of a mutation on the interaction
C64S;C67S	causing an interaction
